Experimental data reported in PMC6048597 (Biochemistry, 2018).

Columns and labels:
Assay in all cases: ITC
[1] = target: T1, hBAZ2A PHD finger (residues 1673–1728), wild type (human, UniProt Q9UIF9 1673-1728)
T1 sequence (looked up): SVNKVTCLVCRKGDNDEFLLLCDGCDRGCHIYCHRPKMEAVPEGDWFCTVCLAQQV

[2] = target: T2, hAIRE PHD C310L (human, UniProt O43918 294-343, C310L)
T2 chain (looked up): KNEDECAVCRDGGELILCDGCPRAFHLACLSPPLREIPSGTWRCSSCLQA

[3] = target: T3, hKDM5B PHD V346A (human, UniProt Q9UGL1 305-366, V346A)
T3 sequence (looked up): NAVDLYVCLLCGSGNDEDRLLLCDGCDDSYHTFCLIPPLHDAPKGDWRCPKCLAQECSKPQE

B1: Histone H3 residues 1–11 (H3-1-11W) (peptide)
peptide: ARTKQTARKSTW
[1]
  binding result: binds
[2]
  fold increase in affinity against the wild type AIRE PHD: ~15 fold
[3]
  binding result: binds
